Data as given in publication PMC12700824.

Experiments:
[1] = molecular target: FAM118B-L32R, full length, tagged with mEGFP or with mCherry, Q9BPY3; experiment: FCCS (fluorescence cross-correlation spectroscopy) in living U2OS cells; settings: chain shown with the change; mEGFP-F122R (green label) coexpressed with mCherry-L32R (red label); n = 15 cells per condition; read off a plot
[2] = molecular target: FAM118B-F122R, full length, tagged with mEGFP or with mCherry, Q9BPY3; experiment: as above; settings: chain shown with the change, n = 15 cells per condition, read off a plot

B1: mEGFP–FAM118B WT (full-length human FAM118B fused at its N terminus to mEGFP), Q9BPY3 binder:F122R; target:L32R (protein)
chain: MASTGSQASDIDEIFGFFNDGEPPTKKPRKLLPSLKTKKPRELVLVIGTGISAAVAPQVPALKSWKGLIQALLDAAIDFDLLEDEESKKFQKCLHEDKNLVHVAHDLIQKLSPRTSNVRSTRFKDCLYEVFDDLESKMEDSGKQLLQSVLHLMENGALVLTTNFDNLLELYAADQGKQLESLDLTDEKKVLEWAQEKRKLSVLHIHGVYTNPSGIVLHPAGYQNVLRNTEVMREIQKLYENKSFLFLGCGWTVDDTTFQALFLEAVKHKSDLEHFMLVRRGDVDEFKKLRENMLDKGIKVISYGDDYADLPEYFKRLTCEISTRGTSAGMVREGQLNGSSAAHSEIRGCST
[1]
  response: 88%

B2: mEGFP–FAM118B WT (full-length human FAM118B fused at its N terminus to mEGFP), Q9BPY3 binder:L32R; target:F122R (protein)
chain: MASTGSQASDIDEIFGFFNDGEPPTKKPRKLRPSLKTKKPRELVLVIGTGISAAVAPQVPALKSWKGLIQALLDAAIDFDLLEDEESKKFQKCLHEDKNLVHVAHDLIQKLSPRTSNVRSTFFKDCLYEVFDDLESKMEDSGKQLLQSVLHLMENGALVLTTNFDNLLELYAADQGKQLESLDLTDEKKVLEWAQEKRKLSVLHIHGVYTNPSGIVLHPAGYQNVLRNTEVMREIQKLYENKSFLFLGCGWTVDDTTFQALFLEAVKHKSDLEHFMLVRRGDVDEFKKLRENMLDKGIKVISYGDDYADLPEYFKRLTCEISTRGTSAGMVREGQLNGSSAAHSEIRGCST
[2]; mEGFP-L32R (green label) coexpressed with mCherry-F122R (red label)
  response: 90%

B3: mEGFP–FAM118B WT (full-length human FAM118B fused at its N terminus to mEGFP), Q9BPY3 binder:F122R; target:F122R (protein)
chain: MASTGSQASDIDEIFGFFNDGEPPTKKPRKLLPSLKTKKPRELVLVIGTGISAAVAPQVPALKSWKGLIQALLDAAIDFDLLEDEESKKFQKCLHEDKNLVHVAHDLIQKLSPRTSNVRSTRFKDCLYEVFDDLESKMEDSGKQLLQSVLHLMENGALVLTTNFDNLLELYAADQGKQLESLDLTDEKKVLEWAQEKRKLSVLHIHGVYTNPSGIVLHPAGYQNVLRNTEVMREIQKLYENKSFLFLGCGWTVDDTTFQALFLEAVKHKSDLEHFMLVRRGDVDEFKKLRENMLDKGIKVISYGDDYADLPEYFKRLTCEISTRGTSAGMVREGQLNGSSAAHSEIRGCST
[2]; mEGFP-F122R (green label) coexpressed with mCherry-F122R (red label)
  response: 6%
